Measured values: patent US12097241B2, “Methods of treating kidney failure, and/or improving or stablizing renal function using modified relaxin polypeptides” (BRISTOL-MYERS SQUIBB COMPANY, priority 2017, dated 2024)
Where two headings read alike, the source gives them in different places.

Experiment: In vivo pharmacokinetic (PK) studies in rats
Set-up: species or system Sprague-Dawley rats
Settings: for level at time molar at 24 h: read-out: Rat PK C24; for AUC(0-inf): read-out: Rat PK AUC Total
Description: […] Blood samples were collected via jugular vein at different time points out to 72 hours. Blood samples were allowed to coagulate at room temperature (30-60 m) and then centrifuged (1500-2000) at 4° C. to obtain serum. After centrifugation serum samples were transferred to 96 well plates and stored at −80° C. until bioanalysis. Relaxin concentrations were measured from serum by ELISA.
Relaxin concentration-time profiles from individual animals were used for analysis. Pharmacokinetic parameters were calculated by non-compartmental methods using Phoenix WinNonlin (version 6.4) or Kinetica (version 5). Mean pharmacokinetic parameters Cmax, AUCinf, C24 and half-life were reported (Table 4). Table 4. In vivo PK data (abbreviations as in Table 3).

[1] = rats, SC dose 1.0 mg/kg, adjusted from 0.5 mpk
[2] = rat, male Sprague-Dawley rats, single SC dose 1.0 mg/kg, serum ELISA

SMILES	Rat PK AUC Total [1]	level at time molar at 24 h [1]	AUC(0-inf) [2]	level at time molar at 24 h [2]
CC[C@H](C)[C@@H]1NC(=O)[C@H](C)NC(=O)[C@H]([C@@H](C)CC)NC(=O)[C@H](CCC(N)=O)NC(=O)[C@H](C)NC(=O)[C@H](CCCNC(=N)N)NC(=O)[C@H](C(C)C)NC(=O)[C@H](CC(C)C)NC(=O)[C@H](CCC(=O)O)NC(=O)[C@H](CCCNC(=N)N)NC(=O)CNC(=O)[C@@H](NC(=O)[C@H](CC(C)C)NC(=O)[C@H](CCCCN)NC(=O)[C@@H](NC(=O)[C@@H](NC(=O)[C@H](CCC(=O)O)NC(=O)[C@H](CCC(=O)O)NC(=O)[C@H](CCSC)NC(=O)[C@H](Cc2c[nH]c3ccccc23)NC(=O)[C@H](CO)NC(=O)[C@H](C)N)C(C)C)[C@@H](C)CC)CSSC[C@@H]2NC(=O)[C@@H](NC(=O)[C@H](CCCCN)NC(=O)[C@H](CC(N)=O)NC(=O)[C@H](C)NC(=O)[C@H](CC(C)C)NC(=O)[C@H](C)NC(=O)[C@H](CO)NC(=O)[C@H](Cc3ccc(O)cc3)NC(=O)[C@H](CC(C)C)NC(=O)[C@@H](N)Cc3ccc(C(C)=NOCCNC(=O)[C@H](CCC(=O)O)NC(=O)[C@H](CCC(=O)O)NC(=O)[C@H](CCC(=O)O)NC(=O)CNC(=O)CNC(=O)CNC(=O)CC[C@H](NC(=O)CCCCCCCCCCCCCC(=O)O)C(=O)O)cc3)CSSC[C@H](NC(=O)CNC(=O)[C@H](C(C)C)NC(=O)[C@H](Cc3c[nH]cn3)NC2=O)C(=O)N[C@@H]([C@@H](C)O)C(=O)N[C@@H](CCCCN)C(=O)N[C@@H](CCCNC(=N)N)C(=O)N[C@@H](CO)C(=O)N[C@@H](CC(C)C)C(=O)N[C@@H](C)C(=O)N[C@@H](CCCNC(=N)N)C(=O)N[C@@H](Cc2ccccc2)C(=O)N[C@H](C(=O)O)CSSC[C@@H](C(=O)NCC(=O)N[C@@H](CCSC)C(=O)N[C@@H](CO)C(=O)N[C@H](C(=O)N[C@@H](Cc2c[nH]c3ccccc23)C(=O)N[C@@H](CO)C(=O)O)[C@@H](C)O)NC1=O [AQ1-EEEGGG-Glu^γ-C14-COOH]	2.137 µM·h	5.2 nM	–	–
CCCCCCCCCCCCCCCC(=O)N[C@@H](CCC(=O)NCC(=O)NCC(=O)NCC(=O)N[C@@H](CCC(=O)O)C(=O)N[C@@H](CCC(=O)O)C(=O)N[C@@H](CCC(=O)O)C(=O)NCCON=C(C)c1ccc(C[C@H](N)C(=O)N[C@@H](CC(C)C)C(=O)N[C@@H](Cc2ccc(O)cc2)C(=O)N[C@@H](CO)C(=O)N[C@@H](C)C(=O)N[C@@H](CC(C)C)C(=O)N[C@@H](C)C(=O)N[C@@H](CC(N)=O)C(=O)N[C@@H](CCCCN)C(=O)N[C@H]2CSSC[C@@H]3NC(=O)CNC(=O)[C@H](C(C)C)NC(=O)[C@H](Cc4c[nH]cn4)NC(=O)[C@H](CSSC[C@H](NC(=O)[C@H](CC(C)C)NC(=O)[C@H](CCCCN)NC(=O)[C@@H](NC(=O)[C@@H](NC(=O)[C@H](CCC(=O)O)NC(=O)[C@H](CCC(=O)O)NC(=O)[C@H](CCSC)NC(=O)[C@H](Cc4c[nH]c5ccccc45)NC(=O)[C@H](CO)NC(=O)[C@H](C)N)C(C)C)[C@@H](C)CC)C(=O)NCC(=O)N[C@@H](CCCNC(=N)N)C(=O)N[C@@H](CCC(=O)O)C(=O)N[C@@H](CC(C)C)C(=O)N[C@@H](C(C)C)C(=O)N[C@@H](CCCNC(=N)N)C(=O)N[C@@H](C)C(=O)N[C@@H](CCC(N)=O)C(=O)N[C@@H]([C@@H](C)CC)C(=O)N[C@@H](C)C(=O)N[C@@H]([C@@H](C)CC)C(=O)N[C@H](C(=O)NCC(=O)N[C@@H](CCSC)C(=O)N[C@@H](CO)C(=O)N[C@H](C(=O)N[C@@H](Cc4c[nH]c5ccccc45)C(=O)N[C@@H](CO)C(=O)O)[C@@H](C)O)CSSC[C@@H](C(=O)O)NC(=O)[C@H](Cc4ccccc4)NC(=O)[C@H](CCCNC(=N)N)NC(=O)[C@H](C)NC(=O)[C@H](CC(C)C)NC(=O)[C@H](CO)NC(=O)[C@H](CCCNC(=N)N)NC(=O)[C@H](CCCCN)NC(=O)[C@H]([C@@H](C)O)NC3=O)NC2=O)cc1)C(=O)O [AQ1-EEEGGG-Glu^γ-C15-CH3]	–	–	0.37 µM·h	0.89 nM
CC[C@H](C)[C@@H]1NC(=O)[C@H](C)NC(=O)[C@H]([C@@H](C)CC)NC(=O)[C@H](CCC(N)=O)NC(=O)[C@H](C)NC(=O)[C@H](CCCNC(=N)N)NC(=O)[C@H](C(C)C)NC(=O)[C@H](CC(C)C)NC(=O)[C@H](CCC(=O)O)NC(=O)[C@H](CCCNC(=N)N)NC(=O)CNC(=O)[C@@H](NC(=O)[C@H](CC(C)C)NC(=O)[C@H](CCCCN)NC(=O)[C@@H](NC(=O)[C@@H](NC(=O)[C@H](CCC(=O)O)NC(=O)[C@H](CCC(=O)O)NC(=O)[C@H](CCSC)NC(=O)[C@H](Cc2c[nH]c3ccccc23)NC(=O)[C@H](CO)NC(=O)[C@H](C)N)C(C)C)[C@@H](C)CC)CSSC[C@@H]2NC(=O)[C@@H](NC(=O)[C@H](CCCCN)NC(=O)[C@H](CC(N)=O)NC(=O)[C@H](C)NC(=O)[C@H](CC(C)C)NC(=O)[C@H](C)NC(=O)[C@H](CO)NC(=O)[C@H](Cc3ccc(O)cc3)NC(=O)[C@H](CC(C)C)NC(=O)[C@@H](N)Cc3ccc(C(C)=NOCCNC(=O)[C@H](CCC(=O)O)NC(=O)[C@H](CCC(=O)O)NC(=O)[C@H](CCC(=O)O)NC(=O)CNC(=O)CNC(=O)CNC(=O)CC[C@H](NC(=O)CCCCCCCCCCCCCCC(=O)O)C(=O)O)cc3)CSSC[C@H](NC(=O)CNC(=O)[C@H](C(C)C)NC(=O)[C@H](Cc3c[nH]cn3)NC2=O)C(=O)N[C@@H]([C@@H](C)O)C(=O)N[C@@H](CCCCN)C(=O)N[C@@H](CCCNC(=N)N)C(=O)N[C@@H](CO)C(=O)N[C@@H](CC(C)C)C(=O)N[C@@H](C)C(=O)N[C@@H](CCCNC(=N)N)C(=O)N[C@@H](Cc2ccccc2)C(=O)N[C@H](C(=O)O)CSSC[C@@H](C(=O)NCC(=O)N[C@@H](CCSC)C(=O)N[C@@H](CO)C(=O)N[C@H](C(=O)N[C@@H](Cc2c[nH]c3ccccc23)C(=O)N[C@@H](CO)C(=O)O)[C@@H](C)O)NC1=O [AQ1-EEEGGG-Glu^γ-C15-COOH]	–	–	3.55 µM·h	22 nM
CC[C@H](C)[C@@H]1NC(=O)[C@H](C)NC(=O)[C@H]([C@@H](C)CC)NC(=O)[C@H](CCC(N)=O)NC(=O)[C@H](C)NC(=O)[C@H](CCCNC(=N)N)NC(=O)[C@H](C(C)C)NC(=O)[C@H](CC(C)C)NC(=O)[C@H](CCC(=O)O)NC(=O)[C@H](CCCNC(=N)N)NC(=O)CNC(=O)[C@@H](NC(=O)[C@H](CC(C)C)NC(=O)[C@H](CCCCN)NC(=O)[C@@H](NC(=O)[C@@H](NC(=O)[C@H](CCC(=O)O)NC(=O)[C@H](CCC(=O)O)NC(=O)[C@H](CCSC)NC(=O)[C@H](Cc2c[nH]c3ccccc23)NC(=O)[C@H](CO)NC(=O)[C@H](C)N)C(C)C)[C@@H](C)CC)CSSC[C@@H]2NC(=O)[C@@H](NC(=O)[C@H](CCCCN)NC(=O)[C@H](CC(N)=O)NC(=O)[C@H](C)NC(=O)[C@H](CC(C)C)NC(=O)[C@H](C)NC(=O)[C@H](CO)NC(=O)[C@H](Cc3ccc(O)cc3)NC(=O)[C@H](CC(C)C)NC(=O)[C@@H](N)Cc3ccc(C(C)=NOCCNC(=O)CNC(=O)[C@H](CCC(=O)O)NC(=O)[C@@H](NC(=O)CNC(=O)[C@H](CO)NC(=O)[C@H](CO)NC(=O)CNC(=O)[C@H](CCC(=O)O)NC(=O)CNC(=O)[C@@H](NC(=O)CC[C@H](NC(=O)CCCCCCCCCCCCC(=O)O)C(=O)O)[C@@H](C)O)[C@@H](C)O)cc3)CSSC[C@H](NC(=O)CNC(=O)[C@H](C(C)C)NC(=O)[C@H](Cc3c[nH]cn3)NC2=O)C(=O)N[C@@H]([C@@H](C)O)C(=O)N[C@@H](CCCCN)C(=O)N[C@@H](CCCNC(=N)N)C(=O)N[C@@H](CO)C(=O)N[C@@H](CC(C)C)C(=O)N[C@@H](C)C(=O)N[C@@H](CCCNC(=N)N)C(=O)N[C@@H](Cc2ccccc2)C(=O)N[C@H](C(=O)O)CSSC[C@@H](C(=O)NCC(=O)N[C@@H](CCSC)C(=O)N[C@@H](CO)C(=O)N[C@H](C(=O)N[C@@H](Cc2c[nH]c3ccccc23)C(=O)N[C@@H](CO)C(=O)O)[C@@H](C)O)NC1=O [AQ1-GETGSSGEGT-Glu^γ-C13-COOH]	–	–	1.11 µM·h	0.28 nM
